Source: patent publication US6887471
One block for each molecule: values may come before it.

Experiments:
[1] = target: B7 antigen (B7/BB-1, B7-1) on the cell surface (human) (UniProt P33681); test: cell-based or functional assay
[2] = target: B7 Ig fusion protein (human) [IgG part: P01857]; test: solid phase competition: 125I-B7 Ig binding to immobilized CTLA4 Ig
B7 Ig fusion protein = target: T1, B7 Ig fusion protein (human, UniProt P01857-1 99-330 = IgG part, limits assumed, 125I label in the solid phase binding assays); test: FACS, indirect immunostaining of transfected COS cells
T1 construct: domain: hinge, CH2 and CH3 regions; Made as in Linsley et al. 1991; also called B7IgCγ1

inhibition of Th-induced IgM production [1]: 65% | IC50 [2]: 22 nM
Molecule: murine monoclonal antibody BB-1 (anti-B7 antigen)

binding result (B7 Ig fusion protein): no binding (tested: 10 µg/ml)
B1: CD7 expressed on transfected COS cells (receptor, UniProt P09564 26-240, looked up)
chain: AQEVQQSPHCTTVPVGASVNITCSTSGGLRGIYLRQLGPQPQDIIYYEDGVVPTTDRRFRGRIDFSGSQDNLTITMHRLQLSDTGTYTCQAITEVNVYGSGTLVLVTEEQSQGWHRCSDAPPRASALPAPPTGSALPDPQTASALPDPPAASALPAALAVISFLLGLGLGVACVLARTQIKKLCSWRDKNSAACVVYEDMSHSRCNTLSSPNQYQ
notes: whole, on cells; Control transfectant; also called CD7-transfected COS cells
